Data published in PMC11496930 (2024).
Like-named read-outs stand apart in the source and are kept apart here.

B1: 1D3 recombinant IgG (human constant regions) (antibody, V domains shown)
VH: QVQIQQSGAELMRPGASVKLSCKATGYTFTGYWIEWVKQRPGHGLEWIGEILSGRGTTNYNEKFKGKATFTADTYSNTAYMQLSSLTTGDSAIYYCARGGFLYGDGPFDYWGQGTTLTVSS
VL: DILLTQSPAILSVSPGERVSFSCRASQNIDTHIHWYQQRTNGSPRLLIKYASESISGIPSRFSGSGSGTDFTLTINSVESEDIADYYCQQSNSWPFTFGSGTKLEIK
B2: 2C1 recombinant IgG (human constant regions) (antibody, V domains shown)
VH: QVQLQQSGAELVRPGASVTLSCKASGYIFTDYEIHWLKQTPVHGLEWIGTSDPETGGFAYTQKFKGKAILTADKSSSTAYMELRSLTSEDSAVYYCTRRPYYGSGAWFAYWGQGTLVTVSA
VL: DIVMTQSHKFMSTSVGDRVSITCKANHDVNIAVAWYQQKPGQSPKLLIYSASYRYTGVPDRFTGSGSGTDFTFTISSVQAEDLAVYYCQQHYDTPRTFGGGTKLEIK

What was measured:
[1] = biological target: T1, ADI-19425 Fab (human, UniProt P0DOY2 1-106); test: BLI
[2] = biological target: T1, ADI-19425 Fab; test: BLI; remark: listed apart in the source

Binder	koff [1] [s⁻¹]	koff [2] [s⁻¹]
B1	0.000115	
B2		0.000442
